Experiment [1] concerns the target TMPRSS2-ERG8 encoded protein (Type II ERG) fused to an N- or C-terminal fragment of Venus (human). Put plainly: split reporter (BiFC, NanoBiT); BiFC with split Venus in HEK293 cells, 24 hours after transfection, percent of fluorescent cells counted by flow cytometry. (In general: A flow cytometer gives signals particle by particle.)
Experiment [2] deals with TMPRSS2-ERG3 encoded protein (Type I ERG) fused to an N- or C-terminal fragment of Venus (human) (UniProt P11308).
For experiment [3] the target is unchanged. Briefly: split reporter (BiFC, NanoBiT); BiFC with split Venus in HEK293 cells, 24 hours after transfection, percent of fluorescent cells counted by flow cytometry.

TMPRSS2-ERG8 encoded protein (Type II ERG) fused to an N- or C-terminal fragment of Venus (human), sequence (P11308 whole entry, the tested form may be a part): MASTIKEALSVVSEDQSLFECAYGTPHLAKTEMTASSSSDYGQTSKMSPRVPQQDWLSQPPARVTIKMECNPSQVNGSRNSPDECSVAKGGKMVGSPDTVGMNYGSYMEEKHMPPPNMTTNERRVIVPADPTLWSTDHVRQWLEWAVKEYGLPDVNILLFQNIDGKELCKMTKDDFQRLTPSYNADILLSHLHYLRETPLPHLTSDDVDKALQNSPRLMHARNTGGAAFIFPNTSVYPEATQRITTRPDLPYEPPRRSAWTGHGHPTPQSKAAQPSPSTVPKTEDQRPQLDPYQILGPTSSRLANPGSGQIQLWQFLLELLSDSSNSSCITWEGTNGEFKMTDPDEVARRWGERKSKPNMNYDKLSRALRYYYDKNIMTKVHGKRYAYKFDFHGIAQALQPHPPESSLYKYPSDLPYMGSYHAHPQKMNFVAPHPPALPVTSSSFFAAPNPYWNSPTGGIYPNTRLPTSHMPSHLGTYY

Take “TMPRSS2-ERG3 encoded protein (Type I ERG) fused to an N- or C-terminal fragment of Venus (from UniProt P11308-4 33-479) (natural protein)”: in experiment [1], the percent of cells positive for fluorescence (% cells positive for fluorescence) worked out at 10.1.
With “TMPRSS2-ERG8 encoded protein (Type II ERG) fused to an N- or C-terminal fragment of Venus (natural protein)”, the mef2c enhancer luciferase reporter in HEK293 cells: 40 ng TM-ERG3 with 0-40 ng TM-ERG8 plasmid; reduction in luciferase activity against TM-ERG3 alone (at 20 ng or 40 ng TM-ERG8) (% reduction in luciferase activity) in experiment [2] amounted to 50. In experiment [1], this substance had a percent of cells positive for fluorescence (% positive cells) of 5.4. The substance also yielded a percent of cells positive for fluorescence (% cells positive for fluorescence) in experiment [3] of 12.7.

Values taken from article PMC4162137.
